Key:
[1] = target: T1, Complement C1q (C1qA/C1qB/C1qC) (UniProt P02745;P02746;P02747 P02745:23-245,P02746:28-253,P02747:29-245); test: ELONA; estimated; C1q fixed at 0.625 nM; settings: chain copies: 6; label: radiolabel (filter); biotin (pulldown, ELONA)
Experimental: (§1) To further investigate the interaction of aptamer B1 and B11 with C1q, we performed a filter retention assay. Radioactively labelled B1 and B11 were incubated with increasing concentrations of purified C1q and subsequently passed through a nitrocellulose membrane. The amount of oligonucleotides retained on membrane-immobilized C1q was then quantified by autoradiography. […] Similar results were obtained with B11 and B11rc in an Enzyme-Linked Oligonucleotide Assay (ELONA; see U.S. Pat. No. 5,789,163, which patent is incorporated herein in its entirety). […] As a control, the reverse complement of B11, B11RC, was used (squares).

[2] = target: T1, Complement C1q (C1qA/C1qB/C1qC); test: FP filter; nitrocellulose filter retention; concentration dependent binding; settings: chain copies: 6; label: radiolabel (filter); biotin (pulldown)
Experimental: as §1

T1 sequence (P02745 23-245, chain 1 of 3): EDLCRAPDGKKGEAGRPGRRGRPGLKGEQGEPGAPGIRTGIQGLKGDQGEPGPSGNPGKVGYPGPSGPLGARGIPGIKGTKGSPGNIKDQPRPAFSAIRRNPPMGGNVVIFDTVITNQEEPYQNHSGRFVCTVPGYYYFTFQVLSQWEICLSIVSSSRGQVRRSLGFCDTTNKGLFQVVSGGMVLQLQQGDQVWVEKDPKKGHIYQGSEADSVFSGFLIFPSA
T1 sequence (P02746 28-253, chain 2 of 3): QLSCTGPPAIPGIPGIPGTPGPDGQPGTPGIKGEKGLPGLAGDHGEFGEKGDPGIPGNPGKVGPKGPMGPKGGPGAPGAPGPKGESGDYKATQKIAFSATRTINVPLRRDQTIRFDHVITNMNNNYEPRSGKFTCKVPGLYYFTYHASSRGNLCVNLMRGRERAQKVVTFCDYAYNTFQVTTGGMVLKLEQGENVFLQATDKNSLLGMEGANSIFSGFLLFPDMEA
T1 sequence (P02747 29-245, chain 3 of 3): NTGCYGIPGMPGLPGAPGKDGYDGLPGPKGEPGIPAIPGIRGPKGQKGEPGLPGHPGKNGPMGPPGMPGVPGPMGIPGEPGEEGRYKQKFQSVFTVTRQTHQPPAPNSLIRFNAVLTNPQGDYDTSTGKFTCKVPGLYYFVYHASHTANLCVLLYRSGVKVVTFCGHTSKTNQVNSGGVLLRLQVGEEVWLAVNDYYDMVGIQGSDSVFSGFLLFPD

B1: 83S-B11 full (ssDNA)
DNA: CTAGCATGACTGCAGTACGTAACCCAATTCACATACACTCTCACCCCCACTAAACACTGTCTCTTATACACATCTGACGCTGCCGACGA
Binder B1 has a Kd [1] of about 40 nM.

B2: 83S-B1 full (ssDNA)
DNA: CTAGCATGACTGCAGTACGTACTATAGAACAATCCACCGCTTTAAATCAACTATCTTACTGTCTCTTATACACATCTGACGCTGCCGACGA
B2: binds [2].
